Results from the supplement of paper PMC7877785.
± gives the uncertainty stated by the source.

Test: self-splicing fitness, log relative to wild type (ln ratio); higher = more splicing; Tetrahymena group I intron in knt gene, E. coli kanamycin selection, DiMSum; sequences stand for … in CUCUCU…GGAGGGAAAAGUUAUCAGGCAUGCACCUGGUAGCUAGUCUUUAAACCAAUAGAUUGCAUCGGUUUAAAAGGCAAGACCGUCAAAUUGCGGGAAAGGGGUCAACAGCCGUUCAGUACCAAGUCUCAGGGGAAACUUUGAGAUGGCCUUGCAAAGGGUAUGGUAAUAAGCUGACGGACAUGGUCCUAACCACGCAGCCAAGUCCUAAGUCAACAGAUCUUCUGUUGAUAUGGAUGCAGUUCACAGACUAAAUGUCGGUCGGGGAAGAUGUAUUCUUCUCAUAAGAUAUAGUCGGACCUCUCCUUAAUGGGAGCUAGCGGAUGAAGUGAUGCAACACUGGAGCCGCUGGGAACUAAUUUGUAUGCGAAAGUAUAUUGAUUAGUUUUGGAGUACUCGUGGUCG
Outline: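 Six replicate transformations of E. coli BL21(DE3) with a pET-22b(+) library were grown overnight at 37°C or 30°C. The library randomised all eight P1ex-region intron nucleotides, the intron lying in the knt kanamycin-resistance gene, and plates were LB agar with or without 25 μg/mL kanamycin plus 100 μg/mL carbenicillin, 50 μM IPTG and 0.2% rhamnose. Pooled colonies were amplicon-sequenced on an Illumina HiSeq 2500, and fitness is the DiMSum error-weighted combination of wild-type-normalised replicate fold changes, kanamycin versus none.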

Sequence | self-splicing fitness (ln) (30 °C) | self-splicing fitness (ln) (37 °C)
CCGAAGCAAUAUUACGCCCA | -2.41 ± 0.42 | –
UCCUAGCAAUAUUACGAUGU | -1.49 ± 0.06 | -0.553 ± 0.079
UAAGAGCAAUAUUACGUGAU | -4.21 ± 0.34 | -2.43 ± 0.35
UCUAAGCAAUAUUACGUACU | -2.18 ± 0.17 | -1.86 ± 0.21
AAAGAGCAAUAUUACGAGCG | -2.08 ± 0.21 | -2.17 ± 0.24
UACAAGCAAUAUUACGCAUG | -2.07 ± 0.088 | -0.74 ± 0.086
CUGUAGCAAUAUUACGUAGC | -5.54 ± 0.36 | -2.93 ± 0.32
AUCGAGCAAUAUUACGAAGU | -2.62 ± 0.18 | -1.49 ± 0.18
AUCGAGCAAUAUUACGCGGU | -2.9 ± 0.27 | -1.4 ± 0.22
AGCUAGCAAUAUUACGGAUU | -1.3 ± 0.097 | -1 ± 0.13
CAAUAGCAAUAUUACGGUUA | -1.4 ± 0.12 | -1.24 ± 0.1
CAGUAGCAAUAUUACGGGCG | -0.256 ± 0.089 | 0.0762 ± 0.098
CUGGAGCAAUAUUACGUCUA | -1.72 ± 0.3 | -0.483 ± 0.23
GGGAAGCAAUAUUACGUAGC | -1.84 ± 0.18 | -1.37 ± 0.16
UAUCAGCAAUAUUACGCGCG | 0.181 ± 0.08 | -0.0803 ± 0.1
ACCGAGCAAUAUUACGCAGA | -2.2 ± 0.19 | -2.51 ± 0.23
UUAUAGCAAUAUUACGAAUC | -2.06 ± 0.4 | -1.85 ± 0.48
CAAUAGCAAUAUUACGUGGU | -3.82 ± 0.17 | -2.53 ± 0.18
UCUUAGCAAUAUUACGUUUA | -2.75 ± 0.33 | -2.57 ± 0.32
AUCAAGCAAUAUUACGGAUU | -3.31 ± 0.17 | -1.2 ± 0.14
UAAAAGCAAUAUUACGGUCC | -2.84 ± 0.17 | -2.03 ± 0.21
GUUCAGCAAUAUUACGUGUA | -0.88 ± 0.078 | -0.647 ± 0.071
UAGAAGCAAUAUUACGGACU | -1.29 ± 0.13 | 0.474 ± 0.11
CGCUAGCAAUAUUACGAGCU | -0.561 ± 0.11 | -0.7 ± 0.11
UGGCAGCAAUAUUACGUCCA | -1.23 ± 0.12 | -0.471 ± 0.16

Sequence | self-splicing fitness (ln) (30 °C) | self-splicing fitness (ln) (37 °C)
CGCCAGCAAUAUUACGAAUU | -4.49 ± 0.27 | -1.46 ± 0.17
GAACAGCAAUAUUACGCAAC | -1.58 ± 0.097 | -0.355 ± 0.13
UGCUAGCAAUAUUACGCGGC | -3.02 ± 0.38 | –
AGGUAGCAAUAUUACGAACC | -0.58 ± 0.025 | -0.294 ± 0.041
AUAGAGCAAUAUUACGCUUC | -2.52 ± 0.24 | -1.47 ± 0.25
CACUAGCAAUAUUACGGUCU | -1.55 ± 0.078 | -0.782 ± 0.11
UCCGAGCAAUAUUACGUACU | -3.69 ± 0.25 | -2.55 ± 0.34
CUAUAGCAAUAUUACGACUG | 0.0686 ± 0.17 | -0.119 ± 0.17
UCGCAGCAAUAUUACGCAUA | -1.94 ± 0.13 | -0.0771 ± 0.11
GUGAAGCAAUAUUACGGAGG | -2.3 ± 0.23 | -2.49 ± 0.41
GUUCAGCAAUAUUACGGAAC | -3.19 ± 0.2 | -2.09 ± 0.38
AUUCAGCAAUAUUACGGCGC | -0.389 ± 0.099 | -0.346 ± 0.13
AAACAGCAAUAUUACGUACC | -1.52 ± 0.11 | -0.543 ± 0.12
GAGUAGCAAUAUUACGUAGC | -2.44 ± 0.34 | –
GCAGAGCAAUAUUACGUCAA | -2.73 ± 0.45 | –
GUUAAGCAAUAUUACGAAGG | -2.17 ± 0.18 | -1.87 ± 0.28
UACCAGCAAUAUUACGGGUG | -3.23 ± 0.097 | -1.78 ± 0.078
AGCAAGCAAUAUUACGCUAC | -3.82 ± 0.29 | -3.16 ± 0.4
CCUGAGCAAUAUUACGCAAG | -3.97 ± 0.24 | -2.49 ± 0.19
GGGGAGCAAUAUUACGGUAG | -3.09 ± 0.27 | –
UCCCAGCAAUAUUACGCGGC | – | -0.462 ± 0.4
GCCUAGCAAUAUUACGCGCC | -2.42 ± 0.34 | -1.39 ± 0.31
AUAUAGCAAUAUUACGACUA | -0.8 ± 0.3 | -0.351 ± 0.29
AAUCAGCAAUAUUACGACCC | 0.168 ± 0.15 | -0.615 ± 0.16
CCGAAGCAAUAUUACGAAGG | -4.66 ± 0.46 | -2.15 ± 0.27

Sequence | self-splicing fitness (ln) (30 °C) | self-splicing fitness (ln) (37 °C)
UUGAAGCAAUAUUACGUGUU | -4.53 ± 0.21 | -1.92 ± 0.14
CAUCAGCAAUAUUACGUAAG | -0.0494 ± 0.068 | 0.711 ± 0.092
CAAAAGCAAUAUUACGGCUA | -0.892 ± 0.088 | -0.809 ± 0.083
AAAGAGCAAUAUUACGAUAC | – | -2.18 ± 0.41
CCUCAGCAAUAUUACGCGUC | -4.16 ± 0.46 | -2.18 ± 0.34
GCAGAGCAAUAUUACGGAGA | – | -2.09 ± 0.43
UAAAAGCAAUAUUACGAAUA | -0.61 ± 0.11 | -0.627 ± 0.11
UCGAAGCAAUAUUACGCAGG | -3.31 ± 0.23 | -1.8 ± 0.16
CGCUAGCAAUAUUACGUGAU | -2.34 ± 0.12 | -3.44 ± 0.25
AGAGAGCAAUAUUACGACUC | -1.4 ± 0.12 | -0.408 ± 0.15
UUCGAGCAAUAUUACGGAUU | -3.84 ± 0.23 | -3.1 ± 0.29
GCUCAGCAAUAUUACGACGA | -1.94 ± 0.17 | -1.5 ± 0.18
UUGUAGCAAUAUUACGAGUG | -1.69 ± 0.14 | -0.408 ± 0.12
UGUUAGCAAUAUUACGCCGC | -3.34 ± 0.45 | –
UAUAAGCAAUAUUACGACAU | -1.09 ± 0.014 | -0.413 ± 0.033
GCAAAGCAAUAUUACGAGAA | -3 ± 0.2 | -1.66 ± 0.18
AUGAAGCAAUAUUACGUGAC | -2.85 ± 0.13 | -1.63 ± 0.15
UUUGAGCAAUAUUACGGAAG | – | -1.41 ± 0.43
CUACAGCAAUAUUACGUACC | -3.08 ± 0.41 | -1.72 ± 0.43
AAUGAGCAAUAUUACGCGUG | -2.11 ± 0.11 | -0.949 ± 0.1
UGACAGCAAUAUUACGUGGG | -3.76 ± 0.14 | -0.757 ± 0.081
GUUUAGCAAUAUUACGCCAU | -1.68 ± 0.4 | –
GACGAGCAAUAUUACGCAUA | -1.6 ± 0.21 | -0.87 ± 0.17
CAGAAGCAAUAUUACGCCUC | – | -0.543 ± 0.28
GCGAAGCAAUAUUACGGCUC | -1.78 ± 0.17 | -2.01 ± 0.25

Sequence | self-splicing fitness (ln) (30 °C) | self-splicing fitness (ln) (37 °C)
GCACAGCAAUAUUACGUGUU | -3.75 ± 0.089 | -2.07 ± 0.085
ACGAAGCAAUAUUACGGGUC | -4.49 ± 0.29 | -2.34 ± 0.23
ACCCAGCAAUAUUACGGGAU | -2.6 ± 0.085 | -1.01 ± 0.076
UACCAGCAAUAUUACGUGUA | -2.59 ± 0.12 | -1.67 ± 0.1
CCAAAGCAAUAUUACGGUUA | -2.46 ± 0.12 | -2.48 ± 0.14
UGCUAGCAAUAUUACGGUAG | -1.49 ± 0.098 | -0.852 ± 0.13
CGUUAGCAAUAUUACGCGAG | -2.42 ± 0.29 | –
AUUCAGCAAUAUUACGUCCA | -1.19 ± 0.17 | -1.55 ± 0.23
GGCCAGCAAUAUUACGGAGA | -0.788 ± 0.095 | -0.565 ± 0.086
UGGCAGCAAUAUUACGCAAG | -3.83 ± 0.18 | -2.44 ± 0.18
AGAAAGCAAUAUUACGACCA | -0.541 ± 0.11 | 0.144 ± 0.15
CGCCAGCAAUAUUACGGAGA | – | -2.4 ± 0.24
GUGCAGCAAUAUUACGCGUU | -2.7 ± 0.11 | -1.18 ± 0.1
GUGAAGCAAUAUUACGUAAA | -1.41 ± 0.086 | -1.51 ± 0.12
GAAAAGCAAUAUUACGGAUG | -2.63 ± 0.1 | -1.14 ± 0.1
GGGUAGCAAUAUUACGGGAA | -3.91 ± 0.42 | -1.86 ± 0.27
CGCUAGCAAUAUUACGUGGC | -2.89 ± 0.2 | -2.72 ± 0.2
CCCCAGCAAUAUUACGGCAC | -4.46 ± 0.42 | -2.55 ± 0.29
UACGAGCAAUAUUACGUACA | -0.833 ± 0.27 | -1.22 ± 0.48
UUUGAGCAAUAUUACGUAUG | -1.73 ± 0.16 | -2.59 ± 0.24
CGACAGCAAUAUUACGUCAG | -2.38 ± 0.094 | -1.94 ± 0.12
AUAUAGCAAUAUUACGCGCA | -0.342 ± 0.15 | -0.724 ± 0.14
AAGCAGCAAUAUUACGUGCG | -0.989 ± 0.073 | -0.0742 ± 0.092
CGCCAGCAAUAUUACGUGUG | -2.82 ± 0.094 | -1.81 ± 0.11
